# According to PMC5213842, “Characterization and Crystal Structure of a Robust Cyclohexanone Monooxygenase” (Angewandte Chemie (International Ed. in English), 2016):
# T1: TmCHMO (Thermocrispum municipale, UniProt A0A1L1QK39)
# T1 construct: purified recombinant enzyme (E. coli used as expression host for whole-cell work)
# T1 sequence (A0A1L1QK39 1-541): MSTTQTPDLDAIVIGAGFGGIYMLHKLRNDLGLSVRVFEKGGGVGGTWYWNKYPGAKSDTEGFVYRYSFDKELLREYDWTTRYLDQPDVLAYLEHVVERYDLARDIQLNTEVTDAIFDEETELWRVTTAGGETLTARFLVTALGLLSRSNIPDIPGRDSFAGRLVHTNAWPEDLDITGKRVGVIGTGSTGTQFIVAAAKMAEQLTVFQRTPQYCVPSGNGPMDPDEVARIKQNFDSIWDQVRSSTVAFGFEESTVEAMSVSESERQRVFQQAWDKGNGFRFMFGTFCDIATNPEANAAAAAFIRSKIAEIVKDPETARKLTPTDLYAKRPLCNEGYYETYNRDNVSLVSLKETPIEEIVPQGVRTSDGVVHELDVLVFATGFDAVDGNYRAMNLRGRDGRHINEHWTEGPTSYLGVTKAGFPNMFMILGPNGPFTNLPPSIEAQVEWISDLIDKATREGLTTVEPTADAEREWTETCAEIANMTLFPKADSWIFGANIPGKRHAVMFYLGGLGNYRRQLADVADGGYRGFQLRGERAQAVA
# Legend:
# TmCHMO = target: T1, TmCHMO; parameters: steady-state kinetics, NADPH consumption followed by absorbance at 340 nm; settings: 150 uM NADPH, pH 7.0, 25 °C; substrate
# Experimental: Steady-State Kinetics. Steady-state kinetic parameters for purified TmCHMO and AcCHMO were determined using a V-660 spectrophotometer (Jasco). Enzyme (0.02-4 μM), NADPH (150 μM), and increasing substrate concentrations were reacted in air-saturated 50 mM Tris-HCl at pH 7.0 and 25 °C. The rate of NADPH consumption was determined by following the decrease in absorbance at 340 nm (ɛ340 = 6.22 mM-1 cm-1 ). The initial rates of the reactions were plotted as a function of the substrate concentrations. […] Among the assayed compounds (Figure S3), only progesterone and cyclopentadecanone (50 μM) were not substrates of either enzyme based on the NADPH consumption assay. 19 4. EXPERIMENTAL SECTION Materials. NADPH was acquired from Jülich Chiral Solutions GmbH. All other materials were acquired from Sigma-Aldrich unless otherwise specified. Cloning of TmCHMO and BVMOs Purification. The amino acid sequence of a putative CHMO from the thermophilic actinomycete T. municipale DSM 44069 was retrieved from the NCBI database (http://www.ncbi.nlm.nih.gov). This organism is able to grow at 28-60 °C.[8] The TmCHMO sequence was found by carrying out a BLASTP (http://blast.ncbi.nlm.nih.gov/Blast.cgi) using the amino acid sequence of AcCHMO as a query sequence. A codon-optimized TmCHMO gene was synthetized and cloned into pUC57 plasmid by GenScript. […]
# TfPAMO = target: T2, TfPAMO (Thermobifida fusca, UniProt Q47PU3); experiment: small-scale conversion; assay type: biochemical; settings: racemic substrate; enzyme preparation not given
# T2 construct: gene pamO
# T2 sequence (Q47PU3 whole entry): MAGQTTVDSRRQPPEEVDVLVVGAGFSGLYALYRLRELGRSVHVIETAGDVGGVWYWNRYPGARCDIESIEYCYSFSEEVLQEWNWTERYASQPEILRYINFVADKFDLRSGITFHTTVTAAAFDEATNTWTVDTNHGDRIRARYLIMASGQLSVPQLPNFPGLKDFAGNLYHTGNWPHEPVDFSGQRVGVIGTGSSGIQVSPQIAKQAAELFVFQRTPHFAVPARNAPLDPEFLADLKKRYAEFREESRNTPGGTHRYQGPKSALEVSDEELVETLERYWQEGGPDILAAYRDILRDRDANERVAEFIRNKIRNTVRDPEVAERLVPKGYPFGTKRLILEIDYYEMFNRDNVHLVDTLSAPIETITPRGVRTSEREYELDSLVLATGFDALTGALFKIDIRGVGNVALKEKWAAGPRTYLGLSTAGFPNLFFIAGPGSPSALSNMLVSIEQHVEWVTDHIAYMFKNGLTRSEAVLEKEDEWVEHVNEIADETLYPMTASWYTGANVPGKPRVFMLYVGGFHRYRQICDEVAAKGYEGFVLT
# O=C1CC2C=CCC12 = experiment: purified protein
# O=C1CCC1 = experiment: purified protein
# O=C1CCCCC1 = experiment: purified protein
# steady-state kinetics [1] = substrate: O=C1CC2C=CCC12; experiment: steady-state kinetics; assay type: biochemical, Thermocrispum municipale
# steady-state kinetics [2] = substrate: O=C1CCC1; experiment: steady-state kinetics; assay type: biochemical, Thermocrispum municipale
# steady-state kinetics [3] = substrate: O=C1CCCCC1; experiment: steady-state kinetics; assay type: biochemical, Thermocrispum municipale
# [4] = substrate: CC(=O)Cc1ccccc1; experiment: purified protein, by the assay type; parameters: steady-state kinetics, NADPH consumption followed by absorbance at 340 nm; settings: pH 7.0; 25.0 °C
# Experimental: (§1) Steady-State Kinetics. Steady-state kinetic parameters for purified TmCHMO and AcCHMO were determined using a V-660 spectrophotometer (Jasco). Enzyme (0.02-4 μM), NADPH (150 μM), and increasing substrate concentrations were reacted in air-saturated 50 mM Tris-HCl at pH 7.0 and 25 °C. The rate of NADPH consumption was determined by following the decrease in absorbance at 340 nm (ɛ340 = 6.22 mM-1 cm-1 ). The initial rates of the reactions were plotted as a function of the substrate concentrations. […] Among the assayed compounds (Figure S3), only progesterone and cyclopentadecanone (50 μM) were not substrates of either enzyme based on the NADPH consumption assay. 19 4. EXPERIMENTAL SECTION Materials. NADPH was acquired from Jülich Chiral Solutions GmbH. All other materials were acquired from Sigma-Aldrich unless otherwise specified. Cloning of TmCHMO and BVMOs Purification. The amino acid sequence of a putative CHMO from the thermophilic actinomycete T. municipale DSM 44069 was retrieved from the NCBI database (http://www.ncbi.nlm.nih.gov). This organism is able to grow at 28-60 °C.[8] The TmCHMO sequence was found by carrying out a BLASTP (http://blast.ncbi.nlm.nih.gov/Blast.cgi) using the amino acid sequence of AcCHMO as a query sequence. A codon-optimized TmCHMO gene was synthetized and cloned into pUC57 plasmid by GenScript. The TmCHMO gene was subcloned using standard methods into the pCRE2 plamid[9] with XhoI and HindIII restriction sites at the 5’ end and 3’ end, respectively. The resulting plasmid is a pBAD vector harboring a gene encoding TmCHMO fused to the C-terminus of a thermostable variant of phosphite dehydrogenase (PTDH). A histidine tag at the N-terminus of the PTDH is also included in this construct. The same construct containing either the AcCHMO gene or the TfPAMO gene, instead of the TmCHMO gene, was carried out for a previous study[9] and used here to obtain the corresponding fusion proteins. The TmCHMO gene was also subcloned into a pBAD plasmid containing the SUMO (small ubiquitin-related modifier) gene with a N-terminal histidine tag (pBAD-His-Tag-SUMO-TmCHMO).
# [5] = substrate: CC(=O)c1ccccc1; experiment: purified protein, by the assay type; parameters: steady-state kinetics, NADPH consumption followed by absorbance at 340 nm; settings: pH 7.0; 25.0 °C
# Experimental: as §1
# [6] = substrate: CCC(C)=O; experiment: purified protein, by the assay type; parameters: steady-state kinetics, NADPH consumption followed by absorbance at 340 nm; settings: pH 7.0; 25.0 °C
# Experimental: as §1
# [7] = substrate: CCCCCCC(C)=O; experiment: purified protein, by the assay type; parameters: steady-state kinetics, NADPH consumption followed by absorbance at 340 nm; settings: pH 7.0; 25.0 °C
# Experimental: as §1
# [8] = substrate: CCCCCCCCC(C)=O; experiment: purified protein, by the assay type; parameters: steady-state kinetics, NADPH consumption followed by absorbance at 340 nm; settings: pH 7.0; 25.0 °C
# Experimental: as §1
# [9] = substrate: O=C1CCCC1; experiment: purified protein, by the assay type; parameters: steady-state kinetics, NADPH consumption followed by absorbance at 340 nm; settings: pH 7.0; 25.0 °C
# Experimental: as §1
molecule,measurement,setting,value
CSc1ccccc1 [thioanisole],Km,TmCHMO,< 60 µM
O=C1CC2C=CCC12 (racemic) [bicyclo[3.2.0]hept‐2‐en‐6‐one],small-scale conversion,TfPAMO,"By contrast, TfPAMO produced all four possible lactones"
AcCHMO (Acinetobacter johnsonii),kcat,O=C1CC2C=CCC12,4 s⁻¹
same,kcat,O=C1CCC1,4 s⁻¹
same,Km,O=C1CCCCC1,9 µM
same,kcat,O=C1CCCCC1,6 s⁻¹
"TmCHMO (Thermocrispum municipale DSM 44069) (protein, purified recombinant enzyme (E. coli used as expression host for whole-cell work)) MSTTQTPDLDAIVIGAGFGGIYMLHKLRNDLGLSVRVFEKGGGVGGTWYWNKYPGAKSDTEGFVYRYSFDKELLREYDWTTRYLDQPDVLAYLEHVVERYDLARDIQLNTEVTDAIFDEETELWRVTTAGGETLTARFLVTALGLLSRSNIPDIPGRDSFAGRLVHTNAWPEDLDITGKRVGVIGTGSTGTQFIVAAAKMAEQLTVFQRTPQYCVPSGNGPMDPDEVARIKQNFDSIWDQVRSSTVAFGFEESTVEAMSVSESERQRVFQQAWDKGNGFRFMFGTFCDIATNPEANAAAAAFIRSKIAEIVKDPETARKLTPTDLYAKRPLCNEGYYETYNRDNVSLVSLKETPIEEIVPQGVRTSDGVVHELDVLVFATGFDAVDGNYRAMNLRGRDGRHINEHWTEGPTSYLGVTKAGFPNMFMILGPNGPFTNLPPSIEAQVEWISDLIDKATREGLTTVEPTADAEREWTETCAEIANMTLFPKADSWIFGANIPGKRHAVMFYLGGLGNYRRQLADVADGGYRGFQLRGERAQAVA",kcat,steady-state kinetics [1],2 s⁻¹
same,kcat,steady-state kinetics [2],2 s⁻¹
same,kcat,steady-state kinetics [3],2 s⁻¹
same,Km,[4],200 µM
same,Km,[5],5 mM
same,Km,[6],500 µM
same,Km,[7],100 µM
same,Km,[8],50 µM
same,Km,[9],20 µM
